The results in this text go back to article PMC6005658 (2017).

Where two headings read alike, the source gives them in different places. *1 amine or outer side, *2 acyl side, *3 side chain or, on linkers, in order; H or OH if unused. Bridges are numbered along the chain shown (N, C = ends). [ ]: non-standard residue; d: D form. Tyr(All) = C=CCOc1ccc(C[C@H](N[*:1])C(=O)[*:2])cc1

Common to all, as to assay: radioligand binding
Test [1] deals with T1, arodyn analog 4 (staple 2-3; also: RCM olefin trans).
T1 chain: Ac-F[Tyr(All)][Tyr(All)]RLRRIRPK-NH2

For test [2], the target named is T2, arodyn analog 7 (SMILES …).
T2 chain: Ac-FF[Tyr(All)]RLRRIRPK-NH2

Test [3] has as its target T3, arodyn analog 6 (SMILES …).
T3 chain: Ac-F[Tyr(All)]FRLRRIRPK-NH2

The target in test [4] is T4, arodyn analog 3 (staple 1-2; also: RCM olefin trans).
T4 chain: Ac-[Tyr(All)][Tyr(All)]FRLRRIRPK-NH2

Test [5] concerns the target T5, arodyn analog 5.
T5 chain: Ac-[Tyr(All)]FFRLRRIRPK-NH2

The target of test [6] is T1, arodyn analog 4.
Test [7] deals with T2, arodyn analog 7.
The target of test [8] is T3, arodyn analog 6.
Test [9] has as its target T4, arodyn analog 3.
In test [10] the target is T5, arodyn analog 5.

B1: μ opioid receptor (protein)
chain: MDSSTGPGNTSDCSDPLAQASCSPAPGSWLNLSHVDGNQSDPCGLNRTGLGGNDSLCPQTGSPSMVTAITIMALYSIVCVVGLFGNFLVMYVIVRYTKMKTATNIYIFNLALADALATSTLPFQSVNYLMGTWPFGTILCKIVISIDYYNMFTSIFTLCTMSVDRYIAVCHPVKALDFRTPRNAKIVNVCNWILSSAIGLPVMFMATTKYRQGSIDCTLTFSHPTWYWENLLKICVFIFAFIMPVLIITVCYGLMILRLKSVRMLSGSKEKDRNLRRITRMVLVVVAVFIVCWTPIHIYVIIKALITIPETTFQTVSWHFCIALGYTNSCLNPVLYAFLDENFKRCFREFCIPTSSTIEQQNSTRVRQNTREHPSTANTVDRTNHQLENLEAETAPLP
Regarding B1, the Ki with arodyn analog 4 [1] turned out to be 903 nM; with arodyn analog 7 [2], 1430 nM; with arodyn analog 6 [3] it was 1460 nM; with arodyn analog 3 [4], 1920 nM; in the test with arodyn analog 5 [5], 1170 nM.

B2: κ opioid receptor (protein)
chain: MESPIQIFRGEPGPTCAPSACLLPNSSSWFPNWAESDSNGSVGSEDQQLEPAHISPAIPVIITAVYSVVFVVGLVGNSLVMFVIIRYTKMKTATNIYIFNLALADALVTTTMPFQSAVYLMNSWPFGDVLCKIVISIDYYNMFTSIFTLTMMSVDRYIAVCHPVKALDFRTPLKAKIINICIWLLASSVGISAIVLGGTKVREDVDVIECSLQFPDDEYSWWDLFMKICVFVFAFVIPVLIIIVCYTLMILRLKSVRLLSGSREKDRNLRRITKLVLVVVAVFIICWTPIHIFILVEALGSTSHSTAVLSSYYFCIALGYTNSSLNPVLYAFLDENFKRCFRDFCFPIKMRMERQSTNRVRNTVQDPASMRDVGGMNKPV
B2: the Ki in the test with arodyn analog 4 [6] was 55.4 nM; with arodyn analog 7 [7], 134 nM; with arodyn analog 6 [8], 66.3 nM; with arodyn analog 3 [9], 71.7 nM; with arodyn analog 5 [10], 83.3 nM.

As a reminder, the Ki is the equilibrium dissociation constant of an inhibitor or competing ligand from its target. Read a low Ki as higher affinity.
